Data as given in patent US20260035426A1.

Tests used:
[1] = molecular target: T1, CM1; assay: cell-based or functional assay
T1 sequence (peptide): MVPSALTASG

[2] = molecular target: T2, CM4; assay: cell-based or functional assay
T2 sequence (peptide): MVVLALTASG

Chain of recombinant human MMP2 (P08253 110-660 limits assumed): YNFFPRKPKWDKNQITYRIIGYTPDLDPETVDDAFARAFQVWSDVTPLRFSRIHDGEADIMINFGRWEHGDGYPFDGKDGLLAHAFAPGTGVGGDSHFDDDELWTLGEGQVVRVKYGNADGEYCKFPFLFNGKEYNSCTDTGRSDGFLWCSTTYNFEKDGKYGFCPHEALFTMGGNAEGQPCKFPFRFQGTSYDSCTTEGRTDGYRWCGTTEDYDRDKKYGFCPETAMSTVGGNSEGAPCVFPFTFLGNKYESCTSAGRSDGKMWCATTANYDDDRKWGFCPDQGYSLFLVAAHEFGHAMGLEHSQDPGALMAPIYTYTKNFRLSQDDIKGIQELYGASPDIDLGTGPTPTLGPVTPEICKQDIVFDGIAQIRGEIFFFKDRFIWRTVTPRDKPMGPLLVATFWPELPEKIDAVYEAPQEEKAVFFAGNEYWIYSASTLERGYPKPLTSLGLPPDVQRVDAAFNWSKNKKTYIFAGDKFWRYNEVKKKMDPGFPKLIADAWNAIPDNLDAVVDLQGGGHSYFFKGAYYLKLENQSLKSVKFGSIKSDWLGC

| Cleavage efficiency (EC50) [1] | Cleavage efficiency (EC50) [2] | Substance |
| --- | --- | --- |
| 0.006 µg/mL | 0.15 µg/mL | recombinant human MMP2 (from UniProt P08253 110-660) (enzyme) |
| 0.05 µg/mL | 0.2 µg/mL | recombinant human MMP9 (from UniProt P14780 107-707) (enzyme) |
